Experimental data published in patent US20200369771A1 (JOINT STOCK COMPANY BIOCAD, published 2020).
Numbering of substitutions follows the chain as printed.

Columns and labels:
[1] = target: T1, human PD-L1 (recombinant, in solution) (human, UniProt Q9NZQ7 19-238, limits assumed); assay: BLI Octet Red 96, Fab from E. coli supernatant on anti-FABCH1 sensors, PD-L1 at 30 ug/mL, 1:1 model
T1 construct: also called human PD-L1 antigen
Method: Anti-FABCH1-biosensors (SA) were rehydrated for 30 minutes in the reaction buffer containing 10 mM PBS, pH 7.2-7.4, 0.1% Tween-20, 0.1% BSA. The reaction buffer was added into study E. coli supernatant samples to a final concentration of 1×. Then, anti-FABCH1-biosensors were submerged in E. coli supernatants containing Fab fragments of candidate antibodies for 12 hours at 4 ° C. Sensors with surface immobilized Fab fragments were transferred into wells with reaction buffer wherein baseline was recorded (for 60 seconds). Next, sensors were transferred to wells with analyte solution (PD-L1, 30 μg/mL) to associate antigen-antibody complex (300 s). Then, sensors were returned to the wells containing the reaction buffer for the next dissociation step (600 s). After each experiment, used sensors were regenerated by 3-time placing them into the regeneration buffer (Gly-HCl, pH 1.7), thereafter they were used in the next experiment. Obtained curve analysis was carried out using Octet Data Analysis (ver 7.0) software according to the standard procedure using 1:1 interaction model.

rabbit PD-L1-Fc = target: T2, rabbit PD-L1-Fc (rabbit, UniProt G1SUI3 19-236); assay: ELISA, PD-L1-Fc coated at 0.5 ug/ml
T2 construct: also called rabbity PD-L1-Fc; not shown: Fc part
T2 sequence: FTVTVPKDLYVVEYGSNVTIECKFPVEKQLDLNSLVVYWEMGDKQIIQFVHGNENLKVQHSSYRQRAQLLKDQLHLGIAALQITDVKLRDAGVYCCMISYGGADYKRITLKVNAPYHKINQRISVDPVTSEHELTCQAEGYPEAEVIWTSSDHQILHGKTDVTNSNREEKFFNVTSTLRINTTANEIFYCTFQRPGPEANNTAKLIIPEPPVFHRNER
Method: (§1) ELISA was used to measure the relative affinity of anti-PD-L1 antibodies from different organisms. For the binding assay, ELISA plate wells (medium binding from Greiner bio one) were coated with 50 μl of human, cynomolgus, murine, rat, canine, rabbity PD-L1-Fc, (0.5 μg/ml in 1× carbonate buffer), hermetically sealed and incubated overnight at 4° C. All the subsequent stages were conducted following standard ELISA protocol described above.

IL17a = target: T3, IL17a (Homo sapiens (Human), UniProt Q16552 24-155); assay: ELISA, antigen coated at 1 µg/ml, BCD-135 titrated 5 to 0.0007 µg/ml, OD 450 nm
T3 construct: Off-target antigen in the specificity ELISA
Method: (§2) ELISA was used to measure the relative affinity of anti-PD-L1 antibodies and other antigens. For binding assay, ELISA plate wells (medium binding from Greiner bio one) were coated with 50 μl of PD-L1-Fc, fPCSK9-EPEA, Ang2-H6F, GM-CSF-FE, CD3-ED-Fc, IL17a, CD38-Fc, IL6R-Fc (1 μg/ml in lx carbonate buffer), hermetically sealed and incubated overnight at 4° C. All the subsequent stages were conducted following standard ELISA protocol. To block a non-specific binding, a buffer BB (200 μL of 0.5% skimmed milk in PBS) was added. The plates were incubated on a shaker for an hour at room temperature. […] The plates were again incubated, shaking for one hour at room temperature, followed by washing for three times each plate well with PBS-Twin buffer. Once washed, (50 μL/well) anti-human Fab HRP-conjugated secondary antibodies (from Pierce-ThermoScientific) were added at 1:5000 ratio in PBS-Tween. The plates were shaken on a rotary shaker (50 min, room temperature) and washed for three times with FSB-Twin buffer, as described above. The colourimetric signal was developed by adding TMB (50 μL/well) until saturation (average 3-5 min), then the development was quenched by adding stop solution (30 μL/well, 10% sulphuric acid). Colour signal was measured at a wavelength of 450 nm using a suitable Tecan-Sunrise plate reader (from Tecan).

cynomolgus PD-L1-Fc = target: T4, cynomolgus PD-L1-Fc (cynomolgus, UniProt G7PSE7 19-238); assay: ELISA, PD-L1-Fc coated at 0.5 µg/ml, antibody titrated 5 to 0.0007 µg/ml, OD 450 nm
T4 construct: not shown: Fc part
Method: as §1

murine PD-L1-Fc = target: T5, murine PD-L1-Fc (murine, UniProt Q9EP73 19-239, limits assumed); assay: as above
T5 construct: not shown: Fc part
Method: as §1

rat PD-L1-Fc = rat PD-L1-Fc (rat, UniProt D4AE25 19-239); assay: as above
Method: as §1

canine PD-L1-Fc = target: T6, canine PD-L1-Fc (canine, UniProt E2RKZ5 19-236); assay: as above
T6 sequence: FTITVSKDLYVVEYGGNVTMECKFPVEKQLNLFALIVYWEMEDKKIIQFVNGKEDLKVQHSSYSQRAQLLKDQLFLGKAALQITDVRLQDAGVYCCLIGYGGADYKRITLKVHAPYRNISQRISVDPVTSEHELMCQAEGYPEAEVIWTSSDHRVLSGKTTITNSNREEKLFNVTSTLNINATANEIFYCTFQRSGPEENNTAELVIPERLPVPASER
Method: as §1

human PD-L1-Fc [2] = target: T7, human PD-L1-Fc (human, UniProt Q9NZQ7 19-238, limits assumed); assay: as above
T7 construct: not shown: Fc part
Method: as §1

[3] = target: T1, human PD-L1 (recombinant, in solution); assay: BLI OctetRed 96, BCD-135 on AR2G sensors, PD-L1 in solution at 10 to 1 ug/ml, 30 C, 1:1 model; human PD-L1
Method: (§3) Constants of the antibody binding affinity to human and cynomolgus PD-L1 were measured with an OctetRed 96 instrument (from ForteBio). […] The assay was carried out at 30 ° C. using PBS containing 0.1% Tween-20 and 0.1% BSA as a reaction buffer. The binding of human and monkey PD-L1 solutions to a sensor-bound antibody was analysed in a work buffer with an antigen concentration of 10 μg/ml to 1 μg/ml.
(§4) The binding curves minus the reference signal were analyzed using Octet Data Analysis (ver 8.2) software according to the standard procedure using the 1:1 interaction model.

human PD-L1-Fc [4] = target: T7, human PD-L1-Fc; assay: ELISA, antigen coated at 1 µg/ml, BCD-135 titrated 5 to 0.0007 µg/ml, anti-human Fab HRP, OD 450 nm
Method: as §2

[5] = target: T8, cynomolgus monkey PD-L1 (in solution) (cynomolgus monkey, UniProt G7PSE7 19-238); assay: BLI OctetRed 96, BCD-135 on AR2G sensors, PD-L1 in solution at 10 to 1 ug/ml, 30 C, 1:1 model; cynomolgus PD-L1
T8 construct: also called cynomolgus PD-L1 antigen
Method: as §3, §4

FcgRIa = target: T9, FcgRIa (Homo sapiens (Human), UniProt P12314 16-292, C-terminal biotin; the letters of any biotinylation or purification tag are not given); assay: Biolayer interferometry (Octet RED96), biotinylated receptor on streptavidin sensors, antibody in solution, phosphate buffer pH 7.4
T9 construct: Biotinylated receptor held on streptavidin sensors; also called Fcg receptor; Fcγ-receptor
T9 sequence (P12314 16-292 limits assumed): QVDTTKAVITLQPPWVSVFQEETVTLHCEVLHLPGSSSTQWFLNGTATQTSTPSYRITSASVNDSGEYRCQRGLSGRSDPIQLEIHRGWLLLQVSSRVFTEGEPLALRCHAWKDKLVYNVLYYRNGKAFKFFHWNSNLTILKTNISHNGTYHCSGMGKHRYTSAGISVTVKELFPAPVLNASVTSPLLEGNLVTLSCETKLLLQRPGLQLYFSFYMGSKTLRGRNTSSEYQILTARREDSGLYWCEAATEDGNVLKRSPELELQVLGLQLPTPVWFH

T1 sequence (Q9NZQ7 other isoform, or with tags, fused parts or gaps limits assumed): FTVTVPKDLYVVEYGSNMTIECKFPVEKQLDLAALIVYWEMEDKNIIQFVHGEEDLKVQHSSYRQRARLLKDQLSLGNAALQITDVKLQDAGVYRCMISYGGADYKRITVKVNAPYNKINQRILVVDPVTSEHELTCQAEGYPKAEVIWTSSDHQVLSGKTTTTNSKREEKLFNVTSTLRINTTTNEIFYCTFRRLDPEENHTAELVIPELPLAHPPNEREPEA
T7 sequence (Q9NZQ7 19-238 limits assumed): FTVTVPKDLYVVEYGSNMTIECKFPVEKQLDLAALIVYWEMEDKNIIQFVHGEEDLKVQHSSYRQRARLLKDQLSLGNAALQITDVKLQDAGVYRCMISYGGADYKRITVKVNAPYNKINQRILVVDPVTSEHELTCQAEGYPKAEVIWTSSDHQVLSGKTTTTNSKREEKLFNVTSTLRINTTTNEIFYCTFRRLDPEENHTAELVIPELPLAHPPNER
T5 sequence (Q9EP73 19-239 limits assumed): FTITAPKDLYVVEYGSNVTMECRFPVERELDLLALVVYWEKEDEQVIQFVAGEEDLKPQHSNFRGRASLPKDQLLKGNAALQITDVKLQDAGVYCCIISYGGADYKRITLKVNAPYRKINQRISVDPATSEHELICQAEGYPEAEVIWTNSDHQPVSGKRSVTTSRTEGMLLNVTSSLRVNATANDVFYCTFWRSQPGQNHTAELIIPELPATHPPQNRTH
Chain of rat PD-L1-Fc (D4AE25 entry or part of it limits assumed): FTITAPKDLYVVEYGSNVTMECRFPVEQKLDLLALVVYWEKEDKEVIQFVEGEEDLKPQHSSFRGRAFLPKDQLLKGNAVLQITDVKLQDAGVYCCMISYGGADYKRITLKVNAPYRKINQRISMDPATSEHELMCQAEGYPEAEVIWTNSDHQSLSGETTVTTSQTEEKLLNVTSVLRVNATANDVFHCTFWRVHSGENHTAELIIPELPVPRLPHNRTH
T4 sequence (G7PSE7 entry or part of it): as the sequence (Q9NZQ7 19-238 limits assumed) above, with A33T, A34S, S62N, R68Q, Q82R, F173L, T185A, T192I, H215L counted along it
T8 sequence (G7PSE7 entry or part of it): as the sequence (Q9NZQ7 19-238 limits assumed) above, with A33T, A34S, S62N, R68Q, Q82R, F173L, T185A, T192I, H215L counted along it
T3 sequence (Q16552 24-155 limits assumed): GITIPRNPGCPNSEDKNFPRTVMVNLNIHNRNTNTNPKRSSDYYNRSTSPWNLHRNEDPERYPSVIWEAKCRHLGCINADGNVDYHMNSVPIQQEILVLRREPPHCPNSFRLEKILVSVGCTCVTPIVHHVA

B1: wild type BCD-135 Fab antibody (Fab, V domains shown)
VH: EVQLVESGGGVVRPGGSLRLSCAASGFTFDDYAMSWVRQAPGKGLEWVSDISWSGSNTNYADSVKGRFTISRDNAKNSLYLQMNSLRAEDTALYHCARAPLLLAMTFGVGSWGQGTLVTVSS
VL: QTVVTQEPSLSVSPGGTVTLTCGLSSGTVTAINYPGWYQQTPGQAPRTLIYNTNTRHSGVPDRFSGSISGNKAALTITGAQAEDEADYYCALYMGNGGHMFGGGTK
notes: Fab made in E. coli and used as supernatant; also called Wild-BCD-135VH; control wild BCD-135 Fab
[1]
  Response: 0.0903

B2: 4m-BCD-135VH (Fab, V domains shown)
VH: B1 VH with D30A, D31N, R98K, L102P, M105T
VL: B1 VL with M94V, N96T, G98S
notes: Substitutions derived from the printed CDR strings; Fab from E. coli supernatant; also called BCD-135 mutant Fab antibody 4m
[1]
  Response: 0.0637

B3: 6m-BCD-135VH (Fab, V domains shown)
VH: B1 VH with D30S, D31T, R98K, L102V, M105I
VL: B1 VL with M94T, N96T, G98S
notes: Substitutions derived from the printed CDR strings; Fab from E. coli supernatant; also called BCD-135 mutant Fab antibody 6m
[1]
  Response: 0.0945

B4: 5m-BCD-135VH (Fab, V domains shown)
VH: B1 VH with D30K, D31S, M34I, R98K, L102M, M105A
VL: B1 VL with M94Y, N96T, G98S
notes: Substitutions derived from the printed CDR strings; Fab from E. coli supernatant; also called BCD-135 mutant Fab antibody 5m
[1]
  Response: 0.0623

B5: 7m-BCD-135VH (Fab, V domains shown)
VH: B1 VH with D30A, R98K, L102P, L103S, M105I
VL: B1 VL with M94E, N96T, G98S
notes: Substitutions derived from the printed CDR strings; Fab from E. coli supernatant; also called BCD-135 mutant Fab antibody 7m
[1]
  Response: 0.0637

B6: 1m-BCD-135VH (Fab, V domains shown)
VH: B1 VH with D30A, D31N, R98K, M105T
VL: B1 VL with M94V, N96T, G98S
notes: Fab from E. coli supernatant; also called BCD-135 mutant Fab antibody 1m
[1]
  Response: 0.0971

B7: 2m-BCD-135VH (Fab, V domains shown)
VH: B1 VH with D30N, R98K, L102P, M105T
VL: B1 VL with M94T, N96T, G98S
notes: Substitutions derived from the printed CDR strings; Fab from E. coli supernatant; also called BCD-135 mutant Fab antibody 2m
[1]
  Response: 0.0505

B8: BCD-135 antibody (antibody, human IgG1, lambda, L234A L235A)
heavy: not shown
light: QTVVTQEPSLSVSPGGTVTLTCGLSSGTVTAINYPGWYQQTPGQAPRTLIYNTNTRHSGVPDRFSGSISGNKAALTITGAQAEDEADYYCALYMGNGGHMFGGGTKLTVLGQPKAAPSVTLFPPSSEELQANKATLVCLISDFYPGAVTVAWKADSSPVKAGVETTTPSKQSNNKYAASSYLSLTPEQWKSHRSYSCQVTHEGSTVEKTVAPTECS
notes: also called anti-PD-L1 antibody; modified IgG1 antibody
Rabbit PD-L1-Fc
  binding result: no binding
IL17a
  binding result: no binding (tested: 5 µg/ml)
Cynomolgus PD-L1-Fc
  EC50 (read off the curve): ~5 ng/mL
Murine PD-L1-Fc
  binding result: no binding (tested: 5 µg/ml)
Rat PD-L1-Fc
  binding result: no binding (tested: 5 µg/ml)
Canine PD-L1-Fc
  binding result: no binding (tested: 5 µg/ml)
Human PD-L1-Fc [2]
  EC50 (read off the curve): ~6 ng/mL
[3]
  Kd: < 0.001 nM
Human PD-L1-Fc [4]
  EC50 (read off the curve): ~6 ng/mL
[5]
  Kd: 0.555 nM
FcgRIa
  binding result: no binding
